Reference: article PMC3225088

Target: T1, NmtR wild-type (Mycobacterium tuberculosis, UniProt O69711 2-120)
T1 sequence: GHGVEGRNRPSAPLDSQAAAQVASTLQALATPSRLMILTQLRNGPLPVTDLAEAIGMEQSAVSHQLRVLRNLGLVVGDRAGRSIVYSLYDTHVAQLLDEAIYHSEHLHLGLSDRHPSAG
Experiment: fluorescence anisotropy

B1: nmt operator 30 bp (dsDNA)
DNA 1: GAAATAAATGAACATATGATCATATATTCT
DNA 2: AGAATATATGATCATATGTTCATTTATTTC
Question: B1 was tested. Which Ka did it give?
Answer: Its Ka is 2.86e+10 M⁻¹.
